T1: mouse PAI-1 (mouse) (UniProt P22777)
T1 sequence: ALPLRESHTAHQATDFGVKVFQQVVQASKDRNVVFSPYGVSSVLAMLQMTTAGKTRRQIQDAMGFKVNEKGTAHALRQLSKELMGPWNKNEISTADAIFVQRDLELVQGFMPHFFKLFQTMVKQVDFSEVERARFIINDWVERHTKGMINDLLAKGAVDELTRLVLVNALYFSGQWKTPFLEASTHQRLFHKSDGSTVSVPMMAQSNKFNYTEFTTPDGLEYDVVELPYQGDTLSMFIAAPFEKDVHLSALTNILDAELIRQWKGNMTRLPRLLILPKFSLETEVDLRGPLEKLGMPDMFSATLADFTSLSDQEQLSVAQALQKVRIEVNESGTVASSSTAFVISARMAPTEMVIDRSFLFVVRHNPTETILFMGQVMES

T2: rat PAI-1 (rat) (UniProt P20961)
T2 sequence: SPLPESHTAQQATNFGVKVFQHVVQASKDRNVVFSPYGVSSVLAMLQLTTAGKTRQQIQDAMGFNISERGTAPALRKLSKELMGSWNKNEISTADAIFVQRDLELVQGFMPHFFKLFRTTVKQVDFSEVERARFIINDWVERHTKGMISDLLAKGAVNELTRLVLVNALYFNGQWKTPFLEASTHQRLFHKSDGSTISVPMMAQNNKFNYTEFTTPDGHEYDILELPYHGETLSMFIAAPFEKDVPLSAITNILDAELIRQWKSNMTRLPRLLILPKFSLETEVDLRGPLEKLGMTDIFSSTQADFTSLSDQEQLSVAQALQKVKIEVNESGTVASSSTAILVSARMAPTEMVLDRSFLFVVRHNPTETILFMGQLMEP


Tests used:
[1] = target: cynomolgus PAI-1 (cynomolgus); test: cell-based or functional assay
[2] = target: human PAI-1, active, wild-type, non-glycosylated (E. coli-derived) (human) (UniProt P05121); test: cell-based or functional assay
[3] = target: T1, mouse PAI-1 (mouse); test: cell-based or functional assay
[4] = target: T2, rat PAI-1 (rat); test: cell-based or functional assay
[5] = target: Antibody 16, IgG1, not germlined; test: competition binding assay: Antibody 16 IgG adsorbed to the plate, biotinylated active human PAI-1 at about its KD, dilution series of the unlabelled competitor (the varied molecule), detection with streptavidin-Europium

IC50, PAI-1:tPA functional assay [1] [nM] | IC50, HT1080 plasminogen activation assay [2] [nM] | IC50, PAI-1:tPA functional assay [2] [nM] | pIC50, HT1080 plasminogen activation assay [2] | IC50, HT1080 plasminogen activation assay [3] [nM] | pIC50, HT1080 plasminogen activation assay [3] | IC50, HT1080 plasminogen activation assay [4] [nM] | IC50, PAI-1:tPA functional assay [4] [nM] | pIC50, HT1080 plasminogen activation assay [4] | IC50 (read off the curve) [5] [nM] | Binder
1.02 | 22 | 3.2 | 7.65 | 25 | 7.6 | 49 | 2.98 | 7.31 |  | PICK167_A01 scFv (scFv) scFv: QVQLQQSGAEVKKPGSSVKVSCKASGGTFSSYAISWVRQAPGQRLEWMGGIIPTFGTANYAQKFQGRVTITADESTSTAYMELSGLRSEDTAVYYCARERRQWLEGHFDYWGRGTPVTVSSGGGGSGGGGSGGGGSDIQMTQSPSFLSASIGDRVTITCRASEGIYHNLAWYQQKPGKAPKLLIYKASSLASGAPSRFSGSRSGTDFTLTISSLQPDDFATYYCQQYSNYPLTFGGGTKLEIKR
 |  |  |  |  |  |  |  |  | 5 | mouse PAI-1 (protein) ALPLRESHTAHQATDFGVKVFQQVVQASKDRNVVFSPYGVSSVLAMLQMTTAGKTRRQIQDAMGFKVNEKGTAHALRQLSKELMGPWNKNEISTADAIFVQRDLELVQGFMPHFFKLFQTMVKQVDFSEVERARFIINDWVERHTKGMINDLLAKGAVDELTRLVLVNALYFSGQWKTPFLEASTHQRLFHKSDGSTVSVPMMAQSNKFNYTEFTTPDGLEYDVVELPYQGDTLSMFIAAPFEKDVHLSALTNILDAELIRQWKGNMTRLPRLLILPKFSLETEVDLRGPLEKLGMPDMFSATLADFTSLSDQEQLSVAQALQKVRIEVNESGTVASSSTAFVISARMAPTEMVIDRSFLFVVRHNPTETILFMGQVMES
 |  |  |  |  |  |  |  |  | 2 | rat PAI-1 (protein) SPLPESHTAQQATNFGVKVFQHVVQASKDRNVVFSPYGVSSVLAMLQLTTAGKTRQQIQDAMGFNISERGTAPALRKLSKELMGSWNKNEISTADAIFVQRDLELVQGFMPHFFKLFRTTVKQVDFSEVERARFIINDWVERHTKGMISDLLAKGAVNELTRLVLVNALYFNGQWKTPFLEASTHQRLFHKSDGSTISVPMMAQNNKFNYTEFTTPDGHEYDILELPYHGETLSMFIAAPFEKDVPLSAITNILDAELIRQWKSNMTRLPRLLILPKFSLETEVDLRGPLEKLGMTDIFSSTQADFTSLSDQEQLSVAQALQKVKIEVNESGTVASSSTAILVSARMAPTEMVLDRSFLFVVRHNPTETILFMGQLMEP

From patent publication US20120114652A1
